Laboratory results as given in patent US20240238445A1, “INHIBITORS AND USES THEREOF” (NEURACLE SCIENCE CO., LTD., priority 2021, published 2024).

B1: LRRC4B (364-713): FLAG-tagged LRRC4B deletion construct, amino acids 364-713 of SEQ ID NO: 2 (protein)
chain: PVIVEPPTDLNVTEGMAAELKCRTGTSMTSVNWLTPNGTLMTHGSYRVRISVLHDGTLNFTNVTVQDTGQYTCMVTNSAGNTTASATLNVSAVDPVAAGGTGSGGGGPGGSGGVGGGSGGYTYFTTVTVETLETQPGEEALQPRGTEKEPPGPTTDGVWGGGRPGDAAGPASSSTTAPAPRSSRPTEKAFTVPITDVTENALKDLDDVMKTTKIIIGCFVAITFMAAVMLVAFYKLRKQHQLHKHHGPTRTVEIINVEDELPAASAVSVAAAAAVASGGGVGGDSHLALPALERDHLNHHHYVAAAFKAHYSSNPSGGGCGGKGPPGLNSIHEPLLFKSGSKENVQETQI
modifications: FLAG tag
B2: LRRC4B (453-713): FLAG-tagged LRRC4B deletion construct, amino acids 453-713 of SEQ ID NO: 2 (protein)
chain: VSAVDPVAAGGTGSGGGGPGGSGGVGGGSGGYTYFTTVTVETLETQPGEEALQPRGTEKEPPGPTTDGVWGGGRPGDAAGPASSSTTAPAPRSSRPTEKAFTVPITDVTENALKDLDDVMKTTKIIIGCFVAITFMAAVMLVAFYKLRKQHQLHKHHGPTRTVEIINVEDELPAASAVSVAAAAAVASGGGVGGDSHLALPALERDHLNHHHYVAAAFKAHYSSNPSGGGCGGKGPPGLNSIHEPLLFKSGSKENVQETQI
modifications: FLAG tag
B3: LRRC4B (230-713): FLAG-tagged LRRC4B deletion construct, amino acids 230-713 of SEQ ID NO: 2 (protein)
chain: RLEELELSGNRLDLIRPGSFQGLTSLRKLWLMHAQVATIERNAFDDLKSLEELNLSHNNLMSLPHDLFTPLHRLERVHLNHNPWHCNCDVLWLSWWLKETVPSNTTCCARCHAPAGLKGRYIGELDQSHFTCYAPVIVEPPTDLNVTEGMAAELKCRTGTSMTSVNWLTPNGTLMTHGSYRVRISVLHDGTLNFTNVTVQDTGQYTCMVTNSAGNTTASATLNVSAVDPVAAGGTGSGGGGPGGSGGVGGGSGGYTYFTTVTVETLETQPGEEALQPRGTEKEPPGPTTDGVWGGGRPGDAAGPASSSTTAPAPRSSRPTEKAFTVPITDVTENALKDLDDVMKTTKIIIGCFVAITFMAAVMLVAFYKLRKQHQLHKHHGPTRTVEIINVEDELPAASAVSVAAAAAVASGGGVGGDSHLALPALERDHLNHHHYVAAAFKAHYSSNPSGGGCGGKGPPGLNSIHEPLLFKSGSKENVQETQI
modifications: FLAG tag
B4: LRRC4B (36-713): FLAG-tagged LRRC4B deletion construct, amino acids 36-713 of SEQ ID NO: 2 (protein)
chain: AGGGGVAVTSAAGGGSPPATSCPVACSCSNQASRVICTRRDLAEVPASIPVNTRYLNLQENGIQVIRTDTFKHLRHLEILQLSKNLVRKIEVGAFNGLPSLNTLELFDNRLTTVPTQAFEYLSKLRELWLRNNPIESIPSYAFNRVPSLRRLDLGELKRLEYISEAAFEGLVNLRYLNLGMCNLKDIPNLTALVRLEELELSGNRLDLIRPGSFQGLTSLRKLWLMHAQVATIERNAFDDLKSLEELNLSHNNLMSLPHDLFTPLHRLERVHLNHNPWHCNCDVLWLSWWLKETVPSNTTCCARCHAPAGLKGRYIGELDQSHFTCYAPVIVEPPTDLNVTEGMAAELKCRTGTSMTSVNWLTPNGTLMTHGSYRVRISVLHDGTLNFTNVTVQDTGQYTCMVTNSAGNTTASATLNVSAVDPVAAGGTGSGGGGPGGSGGVGGGSGGYTYFTTVTVETLETQPGEEALQPRGTEKEPPGPTTDGVWGGGRPGDAAGPASSSTTAPAPRSSRPTEKAFTVPITDVTENALKDLDDVMKTTKIIIGCFVAITFMAAVMLVAFYKLRKQHQLHKHHGPTRTVEIINVEDELPAASAVSVAAAAAVASGGGVGGDSHLALPALERDHLNHHHYVAAAFKAHYSSNPSGGGCGGKGPPGLNSIHEPLLFKSGSKENVQETQI
modifications: FLAG tag
B5: LRRC4C peptide fragment: LRRC4C protein fragment, amino acids 354-527 of SEQ ID NO: 3 (protein)
chain: VIVEPPADLNVTEGMAAELKCRASTSLTSVSWITPNGTVMTHGAYKVRIAVLSDGTLNFTNVTVQDTGMYTCMVSNSVGNTTASATLNVTAATTTPFSYFSTVTVETMEPSQDEARTTDNNVGPTPVVDWETTNVTTSLTPQSTRSTEKTFTIPVTDINSGIPGIDEVMKTTK
B6: LRRC4B (364-576): FLAG-tagged LRRC4B deletion construct, amino acids 364-576 of SEQ ID NO: 2 (protein)
chain: PVIVEPPTDLNVTEGMAAELKCRTGTSMTSVNWLTPNGTLMTHGSYRVRISVLHDGTLNFTNVTVQDTGQYTCMVTNSAGNTTASATLNVSAVDPVAAGGTGSGGGGPGGSGGVGGGSGGYTYFTTVTVETLETQPGEEALQPRGTEKEPPGPTTDGVWGGGRPGDAAGPASSSTTAPAPRSSRPTEKAFTVPITDVTENALKDLDDVMKTTK
modifications: FLAG tag
B7: LRRC4B (157-713): FLAG-tagged LRRC4B deletion construct, amino acids 157-713 of SEQ ID NO: 2 (protein)
chain: LSKLRELWLRNNPIESIPSYAFNRVPSLRRLDLGELKRLEYISEAAFEGLVNLRYLNLGMCNLKDIPNLTALVRLEELELSGNRLDLIRPGSFQGLTSLRKLWLMHAQVATIERNAFDDLKSLEELNLSHNNLMSLPHDLFTPLHRLERVHLNHNPWHCNCDVLWLSWWLKETVPSNTTCCARCHAPAGLKGRYIGELDQSHFTCYAPVIVEPPTDLNVTEGMAAELKCRTGTSMTSVNWLTPNGTLMTHGSYRVRISVLHDGTLNFTNVTVQDTGQYTCMVTNSAGNTTASATLNVSAVDPVAAGGTGSGGGGPGGSGGVGGGSGGYTYFTTVTVETLETQPGEEALQPRGTEKEPPGPTTDGVWGGGRPGDAAGPASSSTTAPAPRSSRPTEKAFTVPITDVTENALKDLDDVMKTTKIIIGCFVAITFMAAVMLVAFYKLRKQHQLHKHHGPTRTVEIINVEDELPAASAVSVAAAAAVASGGGVGGDSHLALPALERDHLNHHHYVAAAFKAHYSSNPSGGGCGGKGPPGLNSIHEPLLFKSGSKENVQETQI
modifications: FLAG tag
B8: LRRC4 peptide fragment: LRRC4 protein fragment, amino acids 353-527 of SEQ ID NO: 1 (protein)
chain: PFIMDAPRDLNISEGRMAELKCRTPPMSSVKWLLPNGTVLSHASRHPRISVLNDGTLNFSHVLLSDTGVYTCMVTNVAGNSNASAYLNVSTAELNTSNYSFFTTVTVETTEISPEDTTRKYKPVPTTSTGYQPAYTTSTTVLIQTTRVPKQVAVPATDTTDKMQTSLDEVMKTTK

Columns and labels:
FAM19A5 protein [1] = molecular target: T1, FAM19A5 protein (Homo sapiens, UniProt Q7Z5A7); assay: Co-immunoprecipitation of FLAG-tagged LRRC4 family deletion constructs/fragments with recombinant FAM19A5 in HEK293 cells; type: binding; conditions: HEK293 cells expressing FLAG-tagged construct, recombinant FAM19A5 1 μM 30 minutes; IP anti-FLAG, blot anti-FAM19A5 (3-2)
Procedure: To understand the interaction between FAM19A5 and members of the LRRC4 protein family, HEK293 cells were modified to express a FLAG-tagged member of the LRRC4 protein family, i.e., LRRC4C protein, LRRC4 protein, or LRRC4B protein. Then, the HEK293 cells or primary cortical neurons were treated with recombinant FAM19A5 protein (1 μM) for 30 minutes, and the binding between FAM19A5 protein and the different members of the LRRC4 protein family was assessed using both co-immunoprecipitation and immunofluorescence assays.
For the co-immunoprecipitation assay, cell lysates from the different FAM19A5-treated HEK293 cells were collected and immunoprecipitated with an anti-FLAG antibody, anti-FAM19A5 (1-65) antibody, or a human IgG antibody (control). Immunoprecipitated proteins were immunoblotted with anti-FLAG and anti-FAM19A5 (3-2) antibodies. For the immunofluorescence assay, the HEK293 cells treated with the recombinant FAM19A5 protein were immunostained with anti-FAM19A5 (3-2) (to detect FAM19A5 protein expression) and anti-FLAG antibodies (to detect member of the LRRC4 protein family). The primary cortical neurons treated with the recombinant FAM19A5 protein were immunostained with anti-FAM19A5 (3-2) and anti-LRRC4B antibodies. The nuclei were stained with Hoechst33342 (blue).
To determine the specific motif or domain of the LRRC4B protein that is responsible for the binding to a FAM19A5 protein, various FLAG-tagged LRRC4B deletion constructs were generated (see Table 6 below). HEK293 cells were transfected with the different deletion constructs and then treated with recombinant FAM19A5 protein as described in Example 1. Then, the cell lysates from the different HEK293 cells were immunoprecipitated with the anti-FLAG antibody. The immunoprecipitated proteins were immunoblotted with anti-FLAG and anti-FAM19A5 (3-2) antibodies.
As described in Example 2, all members of the LRRC4 protein family were capable of binding to FAM19A5 protein to varying degrees. Therefore, to compare the bindings domains, the amino acid sequences of the LRRC4B, LRRC4, and LRRC4C proteins were aligned. […] Therefore, to assess whether the corresponding positions of LRRC4 and LRRC4C were important in the binding of these proteins to FAM19A5 protein, cDNAs encoding either (i) LRRC4C protein fragment (amino acids 354-527 of SEQ ID NO: 3; SEQ ID NO: 66) or (ii) LRRC4 protein fragment (amino acids 353-527 of SEQ ID NO: 1; SEQ ID NO: 67) were constructed (see Table 7). HEK293 cells were transfected to express either of the protein fragments and then treated with recombinant FAM19A5 protein as described in Example 1. Then, the cell lysates from the different HEK293 cells were immunoprecipitated with the anti-FLAG antibody. The immunoprecipitated proteins were immunoblotted with anti-FLAG and anti-FAM19A5 (3-2) antibodies.
Target sequence in this assay (Q7Z5A7 44-132): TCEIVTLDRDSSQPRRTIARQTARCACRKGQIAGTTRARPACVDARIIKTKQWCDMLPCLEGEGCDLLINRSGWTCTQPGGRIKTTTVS

FAM19A5 protein [2] = molecular target: T1, FAM19A5 protein; assay: competitive inhibition ELISA; competitor: coated LRRC4B(36-576)-hFc
FAM19A5 protein [3] = molecular target: T1, FAM19A5 protein; assay: competitive inhibition ELISA; competitor: coated LRRC4B(453-576)-hFc

Row | Molecule | binding to FAM19A5 protein (co-immunoprecipitation) (FAM19A5 protein [1]) | Inhibition rate (%) (FAM19A5 protein [2]) | Inhibition rate (%) (FAM19A5 protein [3])
1 | B1 | able to bind to the FAM19A5 protein with varying degree | – | –
2 | B2 | able to bind to the FAM19A5 protein with varying degree | – | –
3 | B3 | able to bind to the FAM19A5 protein with varying degree | – | –
4 | B4 | able to bind to the FAM19A5 protein with varying degree | – | –
5 | B5 | able to bind to the FAM19A5 protein | – | –
6 | GYTYFTTVTVETLATQPGEE [FB-20[A13]] | – | 51.4% | 27.2%
7 | GYTYFTTVTVETAETQPGEE [FB-20[A12]] | – | 73% | 56.2%
8 | B6 | able to bind to the FAM19A5 protein with varying degree | – | –
9 | B7 | able to bind to the FAM19A5 protein with varying degree | – | –
10 | B8 | able to bind to the FAM19A5 protein | – | –
